Here are results for two molecules from patent US20200277377A1 (WUXI BIOLOGICS SHANGHAI, published 2020).

Broadly, the IC50 is the concentration needed to halve the response being measured. As usually defined, the EC50 is the concentration needed to bring the measured effect to its halfway point.

The target of assay [1] is T1, human CTLA-4.ECD.hFc (human, UniProt P16410 36-161).
T1 construct: extracellular domain; also called hCTLA-4.ECD.hFc; not shown: human Fc tag (hFc)
T1 sequence (looked up): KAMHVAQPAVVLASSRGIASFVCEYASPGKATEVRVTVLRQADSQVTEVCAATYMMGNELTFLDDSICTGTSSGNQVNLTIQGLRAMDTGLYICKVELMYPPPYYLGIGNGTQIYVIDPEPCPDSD
The experiment in a line: competition ELISA, coated human CTLA-4.ECD.hFc, competitor CD86-6×His. The protocol: (§1) Plates were coated with human CTLA-4.ECD.hFc (0.5 μg/mL) at 4° C. for 16-20 hours. […] After washing three times with PBS containing 0.05% Tween 20, biotinylated anti-His tag antibody was 1:2000 diluted and added. The plates were incubated at room temperature for 1 hour. The bound ligands were detected by HRP conjugated streptavidin (1:20000). The color was developed by dispensing 100 μL of TMB substrate for 8 mins, and then stopped by 100 μL of 2N HCl.

The target in assay [2] is T2, hCTLA-4.ECD.hFc-Biotin (human, UniProt P16410 36-161, biotinylated (sites not given)).
T2 construct: extracellular domain; also called Biotinylated CTLA-4.ECD.hFc; biotinylated human CTLA4.ECD.hFc; not shown: human Fc tag (hFc)
T2 sequence (looked up): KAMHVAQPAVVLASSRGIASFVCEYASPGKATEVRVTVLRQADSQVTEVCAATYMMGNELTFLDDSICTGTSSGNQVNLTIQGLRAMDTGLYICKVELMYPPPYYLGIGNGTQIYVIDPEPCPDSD
Nature of the assay: FACS competition, hCTLA-4.ECD.hFc-Biotin on CD86-expressing CHO cells. The protocol:
PE conjugated Streptavidin was purchased from eBioscience (Catalog number 12-4317).
Then the mixtures of antibody and CTLA-4 were added to the cells and incubated for 1 hour at 4° C. The cells were washed two times with 200 μL FACS buffer (DPBS containing 1% BSA). Streptavidin PE 1 to 333 diluted in FACS buffer was added to the cells and incubated at 4° C. for 1 hour. Additional washing steps were performed two times with 200 μL FACS buffer followed by centrifugation at 1500 rpm for 4 minutes at 4° C. Finally, the cells were resuspended in 100 μL FACS buffer and fluorescence values were measured by flow cytometry and analyzed by FlowJo.

The target in assay [3] is T3, full length human CTLA-4 on cells (human, UniProt P16410 36-223).
T3 construct: whole, on cells; also called CTLA-4-expressing cell line
T3 sequence (looked up): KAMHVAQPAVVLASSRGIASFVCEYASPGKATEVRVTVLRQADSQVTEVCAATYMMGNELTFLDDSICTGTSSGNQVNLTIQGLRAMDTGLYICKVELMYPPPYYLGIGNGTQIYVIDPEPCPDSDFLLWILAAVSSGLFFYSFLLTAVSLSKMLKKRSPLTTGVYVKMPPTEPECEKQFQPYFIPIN
Nature of the assay: FACS on human CTLA4 expression 293F cell line. The protocol: A number of 1×10⁵ cells per well was added to each well of a 96-well plate and centrifuged at 1500 rpm for 4 minutes at 4° C. before removing the supernatant. Serial dilutions of test antibodies, positive and negative controls were added to the resuspended cells and incubated for 1 hour at 4° C. The cells were washed two times with 200 μL DPBS containing 1% BSA. PE conjugated goat anti-human IgG (1:100) diluted in DPBS containing 1% BSA was added to the cells and incubated at 4° C. for 1 hour. Additional washing steps were performed two times with 200 μL DPBS containing 1% BSA followed by centrifugation at 1500 rpm for 4 minutes at 4° C. Finally, the cells were resuspended in 100 μL DPBS containing 1% BSA and fluorescence values were measured by flow cytometry and analyzed by FlowJo.

Assay [4] concerns the target T1, human CTLA-4.ECD.hFc. The experiment in a line: competition ELISA, coated human CTLA-4.ECD.hFc, competitor CD80-6×His. Here is the method:
as §1
(In general: An ELISA detects its analyte on a solid surface through an enzyme-linked reagent.)

The target of assay [5] is T4, cynomolgus monkey CTLA-4 ECD-6×His (cynomolgus monkey).
T4 construct: extracellular domain; Bought; also called cynomoguls monkey CTLA-4.ECD-6×His
The experiment in a line: ELISA, coated cynomolgus monkey CTLA-4.ECD-6×His. The protocol: (§2) ELISA was used to test binding of anti-human CTLA-4 antibodies to human, murine and cynomolgus monkey CTLA-4 protein. A 96-well plate was coated with human CTLA-4.ECD-6×His (1.0 μg/mL), cynomoguls monkey CTLA-4.ECD-6×His (0.5 μg/mL) or mouse CTLA-4.ECD-6×His (0.5 μg/mL) at 4° C. for 16-20 hours. After 1 hour blocking with 2% BSA in DBPS, testing antibodies, as well as positive and negative control antibodies were added to the plates and incubated at room temperature for 1 hour. The binding of the antibodies to the plates were detected by HRP-conjugated goat anti-human IgG antibody (1:5000 dilution) with 1 hour incubation. The color was developed by dispensing 100 μL of TMB substrate for 8 mins, and then stopped by 100 μL of 2N HCl.

For assay [6], the target named is T5, hCTLA4_ECD.His point mutant T88 to alanine (human, UniProt P16410 36-161).
T5 construct: extracellular domain; alanine-scan mutein, HEK293F supernatant
T5 sequence (looked up): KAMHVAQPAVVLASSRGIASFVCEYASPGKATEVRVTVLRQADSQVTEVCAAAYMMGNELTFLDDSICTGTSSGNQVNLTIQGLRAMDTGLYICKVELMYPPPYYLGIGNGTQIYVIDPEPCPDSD
The experiment in a line: capture ELISA, alanine scan, vs silent alanine substitutions. Here is the method:
(§3) In order to test how the mutations affect antibody-binding, a capture ELISA was conducted. […] After interacting with the supernatant that contains quantified CTLA4 muteins, HRP conjugated anti-His antibody (1:5000; Rockland Immunochemicals, Pottstown, Pa.) was added as detection antibody. TMB was used as substance of HRP. Absorbance was normalized according to the average of control mutants. After setting an additional cutoff to the binding fold change (<0.55), the final determined epitope residues were identified.

For assay [7], the target named is T6, hCTLA4_ECD.His point mutant Y60 to alanine (human, UniProt P16410 36-161).
T6 construct: extracellular domain; alanine-scan mutein, HEK293F supernatant
T6 sequence (looked up): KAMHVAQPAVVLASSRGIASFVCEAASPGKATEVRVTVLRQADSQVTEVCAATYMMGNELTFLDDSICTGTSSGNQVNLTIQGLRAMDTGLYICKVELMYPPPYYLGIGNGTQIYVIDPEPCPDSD
The assay is described as above. The protocol:
as §3

Assay [8] has as its target T7, human CTLA-4.ECD-6×His (human, UniProt P16410 36-161).
T7 construct: extracellular domain; also called WBP316.hCTLA-4.ECD-6×His; hCTLA4-His (WT)
T7 sequence: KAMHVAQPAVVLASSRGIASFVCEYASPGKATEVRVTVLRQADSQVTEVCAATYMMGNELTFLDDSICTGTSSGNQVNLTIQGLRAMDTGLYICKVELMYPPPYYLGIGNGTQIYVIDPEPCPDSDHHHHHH
The experiment in a line: ELISA, coated human CTLA-4.ECD-6×His. The protocol:
as §2

B1: W3162_1.154.8-z35-uAb.IgG1K (antibody, V domains shown)
VH: QVQLVQSGAEVKKPGSSVKVSCKASGYTFTNYFMNWVRQAPGQGLEWMGRVDPEQGRADYAEKFKKRVTITADKSTSTAYMELSSLRSEDTAVYYCARRAMDNYGFAYWGQGTLVTVSS
VL: EIVLTQSPDFQSVTPKEKVTITCSANSALSYMYWYQQKPDQSPKLWVHGTSNLASGVPSRFSGSGSGTDFTLTINSLEAEDAATYYCHHWSNTQWTFGGGTKVEIK
notes: Humanized; label says IgG1K
Regarding B1, the values for the IC50 in assay [1], in assay [2] and in assay [4] were 0.5 nM, 0.28 nM and 0.63 nM, respectively. Further, the EC50 in assay [3] amounted to 0.66 nM; in assay [5], 0.05 nM; in assay [8], 0.04 nM. Further, the Fold change worked out at 0.433 fold in assay [6] and 0.24 fold in assay [7].

B2: W3162-1.146.19-z12-uAb.IgG1K (antibody, V domains shown)
VH: QVQLQESGPGLVKPSETLSLTCSVTYHTITSGYDWTWIRKPPGKGMEWIGYISYSGNTNYNPSLKSRVTISRDTSKNQFFLKLSSVTAADTAVYYCASMMVPHYYVMDAWGQGTLVTVSS
VL: DIVMTQTPLSLSVTPGQPASISCRSSQSLLNSDGNTYLYWYLQKPGQSPQLLIYLVSKLGSGVPNRFSGSGSGTDFTLKISRVEAEDVGVYYCVQGTHDPWTFGGGTKVEIK
notes: Humanized; label says IgG1K
As to B2, the figures for the IC50 in assay [1], in assay [2] and in assay [4] were 0.71 nM, 5.15 nM and 0.87 nM, respectively. Further, the EC50 in assay [3] was determined as 1.58 nM; in assay [5], 0.05 nM; in assay [8], 0.03 nM. For the same molecule, the Fold change in assay [6] was found to be 0.423 fold; in assay [7], 0.223 fold.
